Assays:
[1] = biological target: T1, recombinant human IL-7Rα-His6-Fc (human, UniProt P16871 21-239); test: IL-7/IL-7Rα-His6-Fc ELISA; inhibition of IL-7 binding to IL-7R
T1 construct: also called hIL-7R; not shown: His6 tag; Fc (captured by anti-human IgG Fc)
T1 chain: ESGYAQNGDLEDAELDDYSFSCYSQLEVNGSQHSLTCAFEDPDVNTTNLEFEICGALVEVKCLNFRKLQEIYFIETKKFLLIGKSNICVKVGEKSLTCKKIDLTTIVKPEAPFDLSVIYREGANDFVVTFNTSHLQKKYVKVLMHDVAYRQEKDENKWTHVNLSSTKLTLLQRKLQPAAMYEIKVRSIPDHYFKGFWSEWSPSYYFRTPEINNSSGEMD

[2] = biological target: T1, recombinant human IL-7Rα-His6-Fc; test: Biacore; IL-7Rα-His6-Fc captured by anti-human IgG Fc, ICVD flowed over
[3] = biological target: T1, recombinant human IL-7Rα-His6-Fc; test: IL-7/IL-7R neutralisation ELISA; inhibition of IL-7 binding to IL-7R
cynomolgus monkey IL-7Rα = biological target: T2, cynomolgus monkey IL-7Rα (cynomolgus monkey, UniProt Q38IC7 21-239, limits assumed); test: competition ELISA: ID-A40U premixed with serially diluted soluble IL-7R, then added to plate-coated human IL-7Rα-His6-Fc; bound ICVD detected
T2 construct: also called cynomolgus IL-7Rα
T2 sequence: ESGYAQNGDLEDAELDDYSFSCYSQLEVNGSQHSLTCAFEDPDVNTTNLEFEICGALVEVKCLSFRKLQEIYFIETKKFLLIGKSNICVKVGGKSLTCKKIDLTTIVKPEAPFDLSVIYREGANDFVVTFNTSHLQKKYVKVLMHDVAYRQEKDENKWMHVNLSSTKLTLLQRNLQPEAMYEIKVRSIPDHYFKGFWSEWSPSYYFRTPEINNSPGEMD
Procedure: (§1) 96-well plates were coated with 0.5 μg/mL recombinant human IL-7Rα His₆-Fc +5 μg/mL BSA and then blocked. 0.5 nM of ICVD was mixed 1:1 with the test compounds of choice serially diluted in 1% BSA, then incubated for 30 minutes to allow binding before adding to the IL-7Rα coated plates. Following 2 hours incubation, bound ICVD was detected with 50 uL/well 1/20000 anti-FLAG-HRP Goat antibody (GeneTex, GTX21238), and the level of neutralisation of ICVD-IL-7Rα binding by the test compounds was determined.

murine IL-7Rα = biological target: T3, murine IL-7Rα (murine, UniProt P16872 21-239); test: as above
T3 construct: also called mouse IL-7R
T3 sequence (looked up): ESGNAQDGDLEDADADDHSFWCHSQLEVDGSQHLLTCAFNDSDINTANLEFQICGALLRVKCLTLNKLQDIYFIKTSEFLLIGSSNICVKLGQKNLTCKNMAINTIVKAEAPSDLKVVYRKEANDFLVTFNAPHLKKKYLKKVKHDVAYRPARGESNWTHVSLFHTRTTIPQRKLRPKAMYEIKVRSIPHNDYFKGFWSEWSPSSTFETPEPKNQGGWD
Procedure: as §1

IL-9R = biological target: T4, IL-9R (human, UniProt Q01113 41-270, limits assumed); test: competition ELISA: ID-A40U premixed with serially diluted soluble receptor, then added to plate-coated human IL-7Rα; bound ICVD detected [left panel]
T4 sequence (looked up): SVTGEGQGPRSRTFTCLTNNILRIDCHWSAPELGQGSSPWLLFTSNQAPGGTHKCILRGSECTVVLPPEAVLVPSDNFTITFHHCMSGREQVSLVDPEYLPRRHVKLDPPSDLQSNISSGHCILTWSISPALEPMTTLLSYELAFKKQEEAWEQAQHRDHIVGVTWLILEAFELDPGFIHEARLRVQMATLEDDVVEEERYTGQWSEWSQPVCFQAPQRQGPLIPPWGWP
Procedure: as §1

TNFR-2 = biological target: T5, TNFR-2 (human, UniProt P20333 23-257); test: as above
T5 sequence (looked up): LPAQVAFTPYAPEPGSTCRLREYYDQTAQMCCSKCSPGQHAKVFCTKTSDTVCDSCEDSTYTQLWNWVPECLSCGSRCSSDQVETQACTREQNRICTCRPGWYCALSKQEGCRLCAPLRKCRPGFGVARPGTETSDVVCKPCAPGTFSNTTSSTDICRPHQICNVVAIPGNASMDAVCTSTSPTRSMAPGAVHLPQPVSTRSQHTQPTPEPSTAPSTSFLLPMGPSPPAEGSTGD
Procedure: as §1

IL-6R = biological target: T6, IL-6R (human, UniProt P08887 20-358, limits assumed); test: as above
T6 sequence (looked up): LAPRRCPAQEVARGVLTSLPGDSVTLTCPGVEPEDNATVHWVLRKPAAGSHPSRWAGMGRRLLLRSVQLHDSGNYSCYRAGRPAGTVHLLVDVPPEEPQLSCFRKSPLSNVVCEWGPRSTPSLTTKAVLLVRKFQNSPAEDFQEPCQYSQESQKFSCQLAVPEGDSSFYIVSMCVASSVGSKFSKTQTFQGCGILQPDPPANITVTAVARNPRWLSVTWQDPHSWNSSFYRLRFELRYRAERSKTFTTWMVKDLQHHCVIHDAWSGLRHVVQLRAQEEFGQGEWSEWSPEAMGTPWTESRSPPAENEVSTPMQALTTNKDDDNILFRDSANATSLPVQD
Procedure: as §1

human IL-12Rβ1 = biological target: T7, human IL-12Rβ1 (human, UniProt P42701 24-545, limits assumed); test: competition ELISA: ID-A40U premixed with serially diluted soluble receptor, then added to plate-coated human IL-7Rα; bound ICVD detected [right panel]
T7 construct: also called hIL-12Rβ1; IL-12Rα1 (as printed in the result sentence)
Procedure: as §1

IL-21R = IL-21R (human, UniProt Q9HBE5 20-232, limits assumed); test: as above
Procedure: as §1

Chain of IL-21R (Q9HBE5 20-232 limits assumed): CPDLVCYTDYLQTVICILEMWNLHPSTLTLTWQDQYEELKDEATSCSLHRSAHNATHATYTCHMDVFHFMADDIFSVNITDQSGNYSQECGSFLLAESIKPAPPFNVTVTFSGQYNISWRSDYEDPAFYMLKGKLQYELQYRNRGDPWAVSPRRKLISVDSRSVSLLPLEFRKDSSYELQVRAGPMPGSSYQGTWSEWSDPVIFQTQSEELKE

EC50 [1]: 544 pM
Kd [2]: 78 pM
EC50 [3]: 544 pM
binding result (cynomolgus monkey IL-7Rα): binds
binding result (murine IL-7Rα): no binding (tested: 100 ng/mL)
binding result (IL-9R): no binding (tested: 100 ng/mL)
binding result (TNFR-2): no binding (tested: 100 ng/mL)
binding result (IL-6R): no binding (tested: 100 ng/mL)
binding result (human IL-12Rβ1): no binding (tested: 100 ng/mL)
binding result (IL-21R): no binding (tested: 100 ng/mL)
B1: ID-A40U (VHH)
VHH: EVQLVESGGGLVQAGGSLRLSCESSISTFSSDAMGWFRQAPGKEREFLAAIGWSGAVTHYSDSVKGRFTISRDNAKNTVYLQMNSLRAEDTGRYYCAEDYDTDVWQYWGQGTQVTVSS
notes: V7R-2E9 with Q65K, K87R, S88A; produced in E. coli; also called A40U-F/H; not shown: Flag-His6 tag

From US20220363769A1 (SORRISO PHARMACEUTICALS, published 2022)
